Reference: PMC5206748, “Disruption of cell adhesion by an antibody targeting the cell-adhesive intermediate (X-dimer) of human P-cadherin” (Scientific Reports, 2017)

T1: human P-cadherin MEC1 (additional Met + residues 1-129) (Homo sapiens)
T1 construct: numbers count on: the mature protein; source: E. coli Rosetta2 (DE3), purified (Ni-NTA, SUMO tag cleaved with Ulp1, SEC)
T1 chain: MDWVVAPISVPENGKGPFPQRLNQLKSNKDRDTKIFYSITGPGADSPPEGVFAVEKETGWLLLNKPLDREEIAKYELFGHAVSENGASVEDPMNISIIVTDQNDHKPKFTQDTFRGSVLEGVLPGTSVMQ

B1: TSP7 single-chain Fv (anti-human P-cadherin antibody) (scFv, V domains shown)
VH: QVQLQESGPELVKPGASVKMSCKASGYSFTAYNMHWVKQSHGKSLEWIGFIDPYSGIITYNQTFKGKATLTVDKSSSTAYMQLNSLTSEDSAVYYCARRGYYDGGFDYWGQGTTLTVSS
VL: DIQMTQTTSSLSASLGDRVTISCRASQDITNYLNWYQQKPDGTVKLLIYYTSRLHSGVPSRFSGSGSGTDYSLTISNLEQEDIATYFCQQDSKHPRTFGGGTKLEIK
notes: VH of TSP7; flexible (Gly4-Ser)3 peptide linker between VH and VL; VL of TSP7; Construct pelB-VH-GS-linker-VL-His6 in pRA2; Residue numbers run through the whole scFv (Asp229 and Arg234 lie in the VL); also called TSP7 (WT); TSP7 WT; not shown: His6, C-terminal, kept
B2: TSP7 (anti-human P-cadherin antibody, scFv format) (scFv, V domains shown)
VH: QVQLQESGPELVKPGASVKMSCKASGYSFTAYNMHWVKQSHGKSLEWIGFIDPYSGIITYNQTFKGKATLTVDKSSSTAYMQLNSLTSEDSAVYYCARRGYYDGGFDYWGQGTTLTVSS
VL: DIQMTQTTSSLSASLGDRVTISCRASQDITNYLNWYQQKPDGTVKLLIYYTSRLHSGVPSRFSGSGSGTDYSLTISNLEQEDIATYFCQQDSKHPRTFGGGTKLEIK
notes: VH of TSP7 (antibody from mice immunised with human P-cadherin EC1-EC5); flexible (Gly4-Ser)3 peptide linker; VL of TSP7; Construct pelB-VH-GS-linker-VL-His6 in pRA2; also called TSP7 WT; not shown: His6, C-terminal, kept
B3: TSP7 S77R single-chain Fv (scFv, V domains shown)
VH: QVQLQESGPELVKPGASVKMSCKASGYSFTAYNMHWVKQSHGKSLEWIGFIDPYSGIITYNQTFKGKATLTVDKSSRTAYMQLNSLTSEDSAVYYCARRGYYDGGFDYWGQGTTLTVSS
VL: DIQMTQTTSSLSASLGDRVTISCRASQDITNYLNWYQQKPDGTVKLLIYYTSRLHSGVPSRFSGSGSGTDYSLTISNLEQEDIATYFCQQDSKHPRTFGGGTKLEIK
notes: as the VH of Dm1 (TSP7, PDB 5JYL) with S77R; flexible (Gly4-Ser)3 peptide linker between VH and VL; as the VL of Dm1 (TSP7, PDB 5JYL); source: purified to homogeneity in a soluble monomeric form; not shown: His6, C-terminal, kept
B4: TSP11 single-chain Fv (anti-human P-cadherin antibody) (scFv, V domains shown)
VH: QVQLQQPGTELVKPGASVKLSCKASGYTFTRYWINWVKQRPQGGLEWIGNIYPGSNITNYNEKFKNKATLTVDTSSNTAYMQLSSLTSDDSAVYYCAREGIYDGYFPLFPYWGQGTLVTVSA
VL: ENVLTQSPAIMAASPGEKVTMTCSASSSVSSGNFHWYQQKPGTSPKLWIYRTSNLASGVPARFSGSGSGTSYSLTISSMEAEDAATYYCQQWSGYPWTFGGGTKLEIK
notes: VH of TSP11; flexible (Gly4-Ser)3 peptide linker between VH and VL; VL of TSP11; Construct pelB-VH-GS-linker-VL-His6 in pRA2
B5: TSP11 (anti-human P-cadherin antibody, scFv format) (scFv, V domains shown)
VH: QVQLQQPGTELVKPGASVKLSCKASGYTFTRYWINWVKQRPQGGLEWIGNIYPGSNITNYNEKFKNKATLTVDTSSNTAYMQLSSLTSDDSAVYYCAREGIYDGYFPLFPYWGQGTLVTVSA
VL: ENVLTQSPAIMAASPGEKVTMTCSASSSVSSGNFHWYQQKPGTSPKLWIYRTSNLASGVPARFSGSGSGTSYSLTISSMEAEDAATYYCQQWSGYPWTFGGGTKLEIK
notes: VH of TSP11 (antibody from mice immunised with human P-cadherin EC1-EC5); flexible (Gly4-Ser)3 peptide linker; VL of TSP11; Construct pelB-VH-GS-linker-VL-His6 in pRA2; not shown: His6, C-terminal, kept

Experiments:
Conditions in all cases: both partners purified
[1] = target: T1, human P-cadherin MEC1 (additional Met + …); experiment: SPR; Biacore T200; MEC1 immobilised on a CM5 chip by amine coupling (~250 RU); scFv as analyte, 0.49-62.5 nM; 25 °C; 10 mM HEPES, 150 mM NaCl, 3 mM CaCl2, pH 7.5, 0.05% Tween-20; global fitting
[2] = target: T2, human E-cadherin EC12 (Homo sapiens, UniProt P12830); experiment: SEC; the solution left in the ITC cell (antibody 25 μM titrated with human E-cadherin EC12 250 μM at 30 °C) injected on Superose 12 10/300 GL; 0.5 mL/min; 25 °C; 10 mM HEPES, 150 mM NaCl, 3 mM CaCl2, pH 7.5
T2 construct: human E-cadherin, domains EC1-EC2; also called E-cad EC12; source: E. coli Rosetta2 (DE3), purified (Ni-NTA, SUMO tag cleaved with Ulp1, SEC)

[3] = target: T3, human P-cadherin EC12 K14E (residues 1-213) (Homo sapiens, UniProt P22223, point mutant); experiment: SPR; scFv (100 nM) captured on anti-His6-tag antibody immobilised on a CM5 chip; P-cadherin construct as analyte (1.25-20 nM strand-swap dimer, 6.25-100 nM monomer); global fitting; the paper puts the lower KD for the strand-swap dimer down to an avidity effect
T3 construct: human P-cadherin, residues 1-213 with K14E; numbers count on: the mature protein; also called strand-swap dimer construct; source: E. coli Rosetta2 (DE3), purified (Ni-NTA, SUMO tag cleaved with Ulp1, SEC)

[4] = target: T4, human P-cadherin MEC12 K14E (additional Met + residues 1-213) (Homo sapiens, point mutant); experiment: as above
T4 construct: human P-cadherin, residues 1-213 with K14E; numbers count on: the mature protein; also called monomer construct; source: E. coli Rosetta2 (DE3), purified (Ni-NTA, SUMO tag cleaved with Ulp1, SEC)

[5] = target: T3, human P-cadherin EC12 K14E (residues …); experiment: ITC; iTC200; antibody in the cell (15-30 μM), P-cadherin construct in the syringe (150-300 μM); 15 °C; one-site binding model
[6] = target: T4, human P-cadherin MEC12 K14E (additional …); experiment: as above
[7] = target: T5, human P-cadherin MEC12 (human, UniProt P22223); experiment: ITC; antibodies (15-30 μM) in the cell titrated with cadherins (150-300 μM); 15 °C; one-site binding model
T5 construct: additional Met at the N-terminus of EC12; P-cadherin (cadherin-3), human, extracellular domains EC1-EC2; Fast exchange between monomer and X-dimer; also called X-dimer construct; source: E. coli Rosetta2 (DE3), SUMO fusion, Ni-NTA, SUMO cleaved with Ulp1, SEC

[8] = target: T6, human E-cadherin EC12 (Homo sapiens, UniProt P12830); experiment: ITC + SEC; antibodies (25 μM) in the cell titrated with human E-cadherin EC12 (250 μM) in the syringe, 30 °C; the solution left in the cell was then run on Superose 12 in 10 mM HEPES, 150 mM NaCl, 3 mM CaCl2, pH 7.5
T6 construct: E-cadherin (cadherin-1), human, extracellular domains EC1-EC2; source: E. coli Rosetta2 (DE3), SUMO fusion, Ni-NTA, SUMO cleaved with Ulp1, SEC

[9] = target: T7, human P-cadherin MEC1 (Homo sapiens, UniProt P22223); experiment: SPR; MEC1 immobilised on a CM5 chip by amine coupling (~250 RU); antibodies as analyte 0.49-62.5 nM; 25 °C; 10 mM HEPES, 150 mM NaCl, 3 mM CaCl2, pH 7.5, 0.05% Tween-20; global fitting
T7 construct: additional Met before the N-terminus; P-cadherin (cadherin-3), human, extracellular domain EC1; source: E. coli Rosetta2 (DE3), SUMO fusion, Ni-NTA, SUMO cleaved with Ulp1, SEC

[10] = target: T8, human P-cadherin MEC12 (additional Met + residues 1-213) (Homo sapiens); experiment: ITC; iTC200; antibody in the cell (15-30 μM), P-cadherin construct in the syringe (150-300 μM); 15 °C; one-site binding model
T8 construct: numbers count on: the mature protein; also called X-dimer construct; source: E. coli Rosetta2 (DE3), purified (Ni-NTA, SUMO tag cleaved with Ulp1, SEC)

T4 sequence (chain, as listed by the source point mutant | K14E K14E): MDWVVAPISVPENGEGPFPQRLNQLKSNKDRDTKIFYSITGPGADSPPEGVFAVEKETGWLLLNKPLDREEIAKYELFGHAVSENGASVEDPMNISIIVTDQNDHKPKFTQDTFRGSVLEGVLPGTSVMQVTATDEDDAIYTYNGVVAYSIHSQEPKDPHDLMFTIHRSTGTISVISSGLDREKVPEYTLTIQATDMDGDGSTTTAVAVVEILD

Binder | Kd [1] [nM] | koff [1] [s⁻¹] | kon [1] [M⁻¹ s⁻¹] | binding result [2] | Kd [3] [nM] | koff [3] [s⁻¹] | kon [3] [M⁻¹ s⁻¹] | Kd [4] [nM] | koff [4] [s⁻¹] | kon [4] [M⁻¹ s⁻¹] | stoichiometry N [5] | stoichiometry N [6] | stoichiometry N [7] | binding result [8] | Kd [9] [nM] | stoichiometry N [10]
B1 | 8.7 | 0.026 | 3e+06 | no binding | 0.24 | 0.00015 | 620000 | 63 | 0.03 | 480000 | 0.71 | 0.74 | – | – | – | –
B2 | – | – | – | – | – | – | – | – | – | – | – | – | 1.5 | no binding | ~10 | –
B3 | – | – | – | – | 0.53 | 0.00039 | 730000 | 71 | 0.032 | 450000 | – | – | – | – | – | –
B4 | 14 | 0.0039 | 280000 | no binding | – | – | – | – | – | – | 0.61 | 0.61 | – | – | – | 0.71
B5 | – | – | – | – | – | – | – | – | – | – | – | – | – | no binding | ~10 | –
